Where “and” joins values, the source holds several entries; their conditions need not be identical. Equal values may be shown once. Read-outs that look alike come from different tables or passages of the source.
Experiments:
[1] = target: the molecule itself; assay: SEC-MALS; samples at 0.5–20 mg/ml in 20 mM Tris pH 8.0, 150 mM KCl, 2 mM DTT; Superdex 200 Increase 10/300 GL; concentration series and enriched species; self-association: dimer and higher oligomers of dimers
[2] = target: the molecule itself; assay: as above; remark: listed apart in the source
[3] = target: the molecule itself; assay: dynamic light scattering; 20 °C, samples at 5–20 mg/ml in 20 mM Tris pH 8.0, 150 mM KCl, 2 mM DTT; size distribution by volume

| Protein | stoichiometry N [1] | stoichiometry N [2] | other results |
| --- | --- | --- | --- |
| SYCE3 1–88 W41A/Y44A (natural protein, human, UniProt A1L190 1-88, looked up, SYCE3, human, amino acids 1–88 with W41A and Y44A; also called SYCE3 W41A/Y44A; source: E. coli BL21(DE3), purified (Ni-NTA, amylose, anion exchange, SEC where appropriate); not shown: His6, N-terminal, cleaved; MBP, N-terminal, cleaved) MDDADPEERNYDNMLKMLSDLNKDLEKLLEEMEKISVQATAMAADMVVMRTNPTLAESMRRLEDAFVNCKEEMEKNWQELLHETKQRL | 2 and 4 |  |  |
| SYCE3 1–88 PPP-loop (natural protein, human, UniProt A1L190 1-88, looked up, also called SYCE3 PPP-loop; source: E. coli BL21(DE3), purified (Ni-NTA, amylose, anion exchange, SEC where appropriate); not shown: His6, N-terminal, cleaved; MBP, N-terminal, cleaved) MDDADPEERNYDNMLKMLSDLNKDLEKLLEEMEKISVQATWMAYDMVVGGPPPTLAESMRRLEDAFVNCKEEMEKNWQELLHETKQRL | 2 |  |  |
| SYCE3 1–88 W41E/Y44E (natural protein, human, UniProt A1L190 1-88, looked up, SYCE3, human, amino acids 1–88 with W41E and Y44E; also called SYCE3 W41E/Y44E; source: E. coli BL21(DE3), purified (Ni-NTA, amylose, anion exchange, SEC where appropriate); not shown: His6, N-terminal, cleaved; MBP, N-terminal, cleaved) MDDADPEERNYDNMLKMLSDLNKDLEKLLEEMEKISVQATEMAEDMVVMRTNPTLAESMRRLEDAFVNCKEEMEKNWQELLHETKQRL | 2 |  |  |
| Human SYCE3 full-length (amino acids 1–88) (natural protein, UniProt A1L190 1-88, looked up, SYCE3, human, full length, amino acids 1–88 (protein of 88 amino acids); it assembles further with concentration; Tags removed with TEV protease; also called SYCE3 1–88; WT SYCE3; source: E. coli BL21(DE3), purified (Ni-NTA, amylose, anion exchange, SEC where appropriate); not shown: His6, N-terminal, cleaved; MBP, N-terminal, cleaved) MDDADPEERNYDNMLKMLSDLNKDLEKLLEEMEKISVQATWMAYDMVVMRTNPTLAESMRRLEDAFVNCKEEMEKNWQELLHETKQRL |  | 24 |  |
| MBP-SYCE3 fusion protein (natural protein, human, UniProt A1L190 1-88, looked up, SYCE3, human; source: E. coli BL21(DE3), purified; not shown: MBP, N-terminal, kept) MDDADPEERNYDNMLKMLSDLNKDLEKLLEEMEKISVQATWMAYDMVVMRTNPTLAESMRRLEDAFVNCKEEMEKNWQELLHETKQRL |  | 4 and 6 |  |
| SYCE3 1–88 P53Q (natural protein, human, UniProt A1L190 1-88, looked up, SYCE3, human, amino acids 1–88 with P53Q; also called SYCE3 P53Q; source: E. coli BL21(DE3), purified (Ni-NTA, amylose, anion exchange, SEC where appropriate); not shown: His6, N-terminal, cleaved; MBP, N-terminal, cleaved) MDDADPEERNYDNMLKMLSDLNKDLEKLLEEMEKISVQATWMAYDMVVMRTNQTLAESMRRLEDAFVNCKEEMEKNWQELLHETKQRL |  |  | binding result [1]: binds |
| SYCE3 12–88 L15N (domain or fragment, human, UniProt A1L190 12-88, looked up, SYCE3, human, amino acids 12–88 with point mutation L15N; source: E. coli BL21(DE3), purified (Ni-NTA, amylose, anion exchange, SEC where appropriate); not shown: His6, N-terminal, cleaved; MBP, N-terminal, cleaved) DNMNKMLSDLNKDLEKLLEEMEKISVQATWMAYDMVVMRTNPTLAESMRRLEDAFVNCKEEMEKNWQELLHETKQRL | 2 |  |  |
| SYCE3 12–88 (domain or fragment, human, UniProt A1L190 12-88, looked up, SYCE3, human, amino acids 12–88 (α1 N-terminal tip removed, structural core kept); source: E. coli BL21(DE3), purified (Ni-NTA, amylose, anion exchange, SEC where appropriate); not shown: His6, N-terminal, cleaved; MBP, N-terminal, cleaved) DNMLKMLSDLNKDLEKLLEEMEKISVQATWMAYDMVVMRTNPTLAESMRRLEDAFVNCKEEMEKNWQELLHETKQRL |  | 2 |  |
| SYCE3 9–88 Y11N/L15N (domain or fragment, human, UniProt A1L190 9-88, looked up, SYCE3, human, amino acids 9–88 with Y11N and L15N (label of the legend; the text says 'mutation to glutamine'); source: E. coli BL21(DE3), purified (Ni-NTA, amylose, anion exchange, SEC where appropriate); not shown: His6, N-terminal, cleaved; MBP, N-terminal, cleaved) RNNDNMNKMLSDLNKDLEKLLEEMEKISVQATWMAYDMVVMRTNPTLAESMRRLEDAFVNCKEEMEKNWQELLHETKQRL |  | 2 |  |
| SYCE3 9–88 (domain or fragment, human, UniProt A1L190 9-88, looked up, SYCE3, human, amino acids 9–88 (unstructured N terminus removed); source: E. coli BL21(DE3), purified (Ni-NTA, amylose, anion exchange, SEC where appropriate); not shown: His6, N-terminal, cleaved; MBP, N-terminal, cleaved) RNYDNMLKMLSDLNKDLEKLLEEMEKISVQATWMAYDMVVMRTNPTLAESMRRLEDAFVNCKEEMEKNWQELLHETKQRL |  |  | binding result [3]: binds |
